Experiments:
[1] = Brain fluorescence after intravenous injection of fluorescence-labeled BSA conjugates; assay type: in vivo, Balb/c mice; conditions: 5.0 mg/kg intravenous, one day after injection
Description: Protein conjugates were synthesized by conjugating polymer, poly(2-methacryloyloxyethyl phosphorylcholine) (PMPC), to fluorescence-labeled bovine serum albumin (BSA). The BSA conjugates were injected to Balb/c mice via intravenously at a dose of 5.0 mg/kg. One date after the intravenous injection, fluorescence intensity of the mouse brains was compared.

choline transporter = assay: Brain uptake of Cy5.5-labeled n(Nimo) after pre-injection of choline-transporter inhibitor; assay type: in vivo, mice; conditions: 1.25, 2.5 or 5 μg/kg intraperitoneal 20 mins before n(Nimo); 4 hours after injection
Description: The BBB penetration of the nanocapsules can be attributed to their transcytosis mediated by the choline and acetylcholine receptors. Glioma-bearing mice were intraperitoneally injected with 1.25, 2.5 or 5 μg/kg of choline-transporter inhibitor, hemicholinium-3 (HC-3), 20 mins prior to the injection of Cy5.5-labeled n(Nimo). FIGS. 8A and 8B depict the in-vivo bioluminescent images of the orthotopic U87-EGFRwt glioma xenograft mice and the ex-vivo fluorescent images of the brains 4 hours after injection. […] This method provides an effective antibody delivery strategy for brain tumor treatment.

[2] = parameters: species or system rhesus macaque monkey; conditions: rhesus monkey, in vivo
Description: To evaluate the CNS delivery efficiency, Rituximab nanoparticles were administrated to non-human primates (rhesus macaque monkey) at a dose of 5.0 mg/kg via intravenous injection. After intravenous administration, plasma was collected at 1, 2, 3, 5, 7, 10, 14 and 17 days post injection, and CSF was collected at day 3, 10 and 17. […] In sharp contrast, Rituximab in CSF was undetectable by week 2 for the monkey administrated with native Rituximab.

In the case of “BSA conjugates: poly(2-methacryloyloxyethyl phosphorylcholine) (PMPC) conjugated to fluorescence-labeled bovine serum albumin”, the “brain fluorescence intensity relative to mice injected with PBS” value [1] is reported as 6 times and the “brain fluorescence intensity relative to mice injected with native BSA” value [1] is reported as 4 times.

With `C[N+]1(C)CCOC(O)(c2ccc(-c3ccc(C4(O)C[N+](C)(C)CCO4)cc3)cc2)C1.[Br-].[Br-]` (centres unmarked) [HC-3, hemicholinium-3] the “effect on fluorescent intensity of glioma-bearing brain after Cy5.5-labeled n(Nimo)” value (choline transporter) was “significantly reduces the fluorescent intensity”.

In the case of Rituximab, the “Rituximab in CSF” value [2] is reported as “undetectable” and the “CSF concentration compared with n-Rituximab” value ([2]; iv) is reported as “significantly lower CSF concentration”.

Source: patent publication US20190351068A1, “COMPOSITIONS AND METHODS FOR DRUG DELIVERY” (priority 2017, published 2019)
